# Test results published in publication PMC11743793, “Structural insights into human topoisomerase 3β DNA and RNA catalysis and nucleic acid gate dynamics” (Nature Communications, 2025).
# Residue numbers refer to the chain shown, from its start.
# T1: human TOP3Bcore-Y336F (1-612 aa) (human, UniProt O95985 1-612, Y336F)
# T1 construct: DNA topoisomerase 3-beta (TOP3B), human, core, residues 1-612, catalytic tyrosine changed to phenylalanine; also called TOP3B chain of cTOP3B-Y336F; not shown: His8, N-terminal, cleaved; MBP, N-terminal, cleaved
# T1 sequence (looked up): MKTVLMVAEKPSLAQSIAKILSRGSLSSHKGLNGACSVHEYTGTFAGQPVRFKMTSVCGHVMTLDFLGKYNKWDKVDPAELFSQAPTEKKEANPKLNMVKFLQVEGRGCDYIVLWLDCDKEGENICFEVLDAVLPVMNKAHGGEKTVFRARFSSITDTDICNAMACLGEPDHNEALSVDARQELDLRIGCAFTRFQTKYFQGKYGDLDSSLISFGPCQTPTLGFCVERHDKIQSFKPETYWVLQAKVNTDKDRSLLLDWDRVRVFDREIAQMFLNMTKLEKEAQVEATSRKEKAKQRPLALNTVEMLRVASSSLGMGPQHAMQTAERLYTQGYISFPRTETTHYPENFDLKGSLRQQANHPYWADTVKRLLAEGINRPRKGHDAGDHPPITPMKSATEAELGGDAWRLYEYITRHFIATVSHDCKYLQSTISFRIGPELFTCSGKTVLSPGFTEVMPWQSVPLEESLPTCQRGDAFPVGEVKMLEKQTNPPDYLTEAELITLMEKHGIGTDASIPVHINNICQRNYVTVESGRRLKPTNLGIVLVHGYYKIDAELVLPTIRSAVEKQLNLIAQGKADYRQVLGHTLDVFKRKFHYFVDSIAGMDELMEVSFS
# T2: human TOP3Bcore-K10M (1-612 aa) (human, UniProt O95985 1-612, K10M)
# T2 construct: DNA topoisomerase 3-beta (TOP3B), human, core, residues 1-612, rejoining-deficient mutant; In the rejoining complexes Y336 carries the tyrosyl-phosphodiester linkage to the cleaved DNA/RNA (PTR336); also called TOP3B chain of cTOP3B-K10M; not shown: His8, N-terminal, cleaved; MBP, N-terminal, cleaved
# T2 sequence (looked up): T1 sequence (looked up) with K10M, F336Y
# T3: human full-length TOP3B(Y336F) (human, UniProt O95985 1-862, Y336F)
# T3 construct: DNA topoisomerase 3-beta (TOP3B), human, full length; residues 1-717 resolved in the apo map; not shown: His8, N-terminal, cleaved; MBP, N-terminal, cleaved
# T3 sequence (looked up): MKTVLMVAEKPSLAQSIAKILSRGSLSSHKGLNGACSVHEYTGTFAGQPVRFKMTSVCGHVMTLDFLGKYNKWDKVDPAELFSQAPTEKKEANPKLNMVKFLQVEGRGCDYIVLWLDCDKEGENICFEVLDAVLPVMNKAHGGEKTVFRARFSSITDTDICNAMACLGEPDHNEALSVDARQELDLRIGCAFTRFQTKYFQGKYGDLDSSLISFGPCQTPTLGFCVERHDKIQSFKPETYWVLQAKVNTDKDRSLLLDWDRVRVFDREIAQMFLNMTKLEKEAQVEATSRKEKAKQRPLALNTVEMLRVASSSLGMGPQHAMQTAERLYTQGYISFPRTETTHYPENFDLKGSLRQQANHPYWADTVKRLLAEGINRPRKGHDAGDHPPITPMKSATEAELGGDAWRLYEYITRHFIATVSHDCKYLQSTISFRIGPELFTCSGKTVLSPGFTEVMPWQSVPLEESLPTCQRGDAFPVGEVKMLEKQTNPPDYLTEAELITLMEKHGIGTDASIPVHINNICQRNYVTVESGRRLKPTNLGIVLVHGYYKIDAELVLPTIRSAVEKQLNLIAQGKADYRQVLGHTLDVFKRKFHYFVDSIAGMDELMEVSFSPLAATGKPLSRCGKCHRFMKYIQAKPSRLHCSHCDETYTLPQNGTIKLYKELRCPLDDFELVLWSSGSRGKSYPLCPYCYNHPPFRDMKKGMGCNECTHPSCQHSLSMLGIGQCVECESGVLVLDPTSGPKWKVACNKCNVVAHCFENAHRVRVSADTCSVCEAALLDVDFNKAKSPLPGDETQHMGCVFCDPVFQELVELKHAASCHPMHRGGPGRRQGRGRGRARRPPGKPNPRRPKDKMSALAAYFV
# B1: N-terminal fragment of human TDRD3 (1-171 aa) containing its DUF domain and OB-fold (domain or fragment, UniProt Q9H7E2 1-171, looked up)
# chain: MLRLQMTDGHISCTAVEFSYMSKISLNTPPGTKVKLSGIVDIKNGFLLLNDSNTTVLGGEVEHLIEKWELQRSLSKHNRSNIGTEGGPPPFVPFGQKCVSHVQVDSRELDRRKTLQVTMPVKPTNDNDEFEKQRTAAIAEVAKSKETKTFGGGGGGARSNLNMNAAGNRNR
# notes: Tudor domain-containing protein 3 (TDRD3), human, residues 1-171 (DUF domain and OB-fold); also called TDRD3 chain of cTOP3B; OB (in TOP3Bcore-OB); not shown: His8, N-terminal, cleaved; MBP, N-terminal, cleaved
# B2: human TOP3Bcore (1-612 aa), wild type (domain or fragment, UniProt O95985 1-612, looked up)
# chain: T1 sequence (looked up) with F336Y
# notes: DNA topoisomerase 3-beta (TOP3B), human, core, residues 1-612; In the DNA post-cleavage complex the catalytic Y336 is covalently linked to the DNA scissile phosphate (PTR336); Tags removed by PreScission Protease before SEC; also called hsTOP3Bcore(1-612AA); TOP3B chain of cTOP3B; not shown: His8, N-terminal, cleaved; MBP, N-terminal, cleaved
# B3: human TDRD3(1-190 aa) (domain or fragment, UniProt Q9H7E2 1-190, looked up)
# chain: MLRLQMTDGHISCTAVEFSYMSKISLNTPPGTKVKLSGIVDIKNGFLLLNDSNTTVLGGEVEHLIEKWELQRSLSKHNRSNIGTEGGPPPFVPFGQKCVSHVQVDSRELDRRKTLQVTMPVKPTNDNDEFEKQRTAAIAEVAKSKETKTFGGGGGGARSNLNMNAAGNRNREVLQKEKSTKSEGKHEGVY
# notes: Tudor domain-containing protein 3 (TDRD3), human, residues 1-190; not shown: His8, N-terminal, cleaved; MBP, N-terminal, cleaved
# Legend:
# [1] = target: T1, human TOP3Bcore-Y336F (1-612 aa); assay: cryo-EM structure; cTOP3B heterodimer (wild type, Y336F or K10M; 3 mg/ml) mixed with equimolar gapped 43-mer DNA or RNA; 25 mM Bis-Tris pH 6.8, 0.1 M KCl, 0.5 mM MnCl2 (5 mM for the rejoining complexes), 0.1% octyl β-D-glucopyranoside, 4 mM DTT, 2% glycerol; RT; settings: both partners purified
# [2] = target: T2, human TOP3Bcore-K10M (1-612 aa); assay: as above; settings: both partners purified
# [3] = target: the molecule itself; assay: cryo-EM structure; cTOP3B mixed with a DNA bubble (11-nt strand opposite 13 unmatched nucleotides) at about 1:1; species with two cTOP3B on one DNA bubble, ~4.3 Å map from 63,000 particles
# [4] = target: T3, human full-length TOP3B(Y336F); assay: cryo-EM structure; full-length TOP3B(Y336F)-TDRD3(1-190 aa) with a DNA mismatch bubble or a short R-loop substrate; cryo-EM volumes; settings: both partners purified
binder,measurement,setting,value
B1,binding result,[1],binds
same,binding result,[2],binds
B2,binding result,[3],binds
B3,binding result,[4],binds
